From article doi:10.1101/2020.06.16.154534 (bioRxiv, 2020)
Like-named read-outs stand apart in the source and are kept apart here.

What was measured:
[1] = target: the molecule itself; assay: SAXS
[2] = target: the molecule itself; assay: SAXS; remark: listed apart in the source

B1: apo-bacterioferritin from E. coli (core-free, heme B bound) (natural protein)
chain: not shown
In the case of B1, the “stoichiometry N” value [1] is reported as 2 and the “stoichiometry N” value [2] is reported as 24.
